Tested on: CC1=CC(=O)c2ccccc2C1=O
Test: purified protein

(Mycobacterium tuberculosis H37Rv)
Km: 17.29 ± 11.63 µM
kcat/Km: 94500 M⁻¹ s⁻¹
